Reference: patent US20120316071A1 (published 2012)
Changes are numbered by the printed parent chain. Names and notes keep the numbering of the source.

T1: rHuman Erythropoietin R/Fc Chimera, CF (R&D Systems Cat#963-ER) (human, UniProt P19235 25-250)
T1 construct: Bought recombinant protein; also called EPO R; EPO R/Fc; Fc part of the bought chimera not given
T1 sequence (looked up): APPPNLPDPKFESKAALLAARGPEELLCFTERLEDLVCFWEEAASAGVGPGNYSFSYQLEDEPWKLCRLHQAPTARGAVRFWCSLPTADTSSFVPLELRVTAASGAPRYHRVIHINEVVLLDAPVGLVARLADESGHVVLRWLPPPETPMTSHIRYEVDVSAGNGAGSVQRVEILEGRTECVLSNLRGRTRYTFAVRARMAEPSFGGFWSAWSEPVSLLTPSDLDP

B1: Fab VH5-51_IGHD5-18*01>3_IGHJ4*01 G100K/G104T & V3-4_IGLJ1*01 (Fab, V domains shown)
VH: EVQLVQSGAEVKKPGESLKISCKGSGYSFTSYWIGWVRQMPGKGLEWMGIIYPGDSDTRYSPSFQGQVTISADKSISTAYLQWSSLKASDTAMYYCARRKYSYTYDYFDYWGQGTLVTVSS
VL: QTVVTQEPSFSVSPGGTVTLTCGLSSGSVSTSYYPSWYQQTPGQAPRTLIYSTNTRSSGVPDRFSGSILGNKAALTITGAQADDESDYYCVLYMGSGISYVFGTGTKVTVL
notes: Tested as a Fab; The constant parts are the same as for the parent Fab (CH1 with His6/Flag tags, lambda CL); also called KT double mutant; H:KT
B2: Fab VH1-46_IGHD6-6*01_IGHJ1*01 & L6_IGKJ1*01 (Fab, V domains shown)
VH: QVQLVQSGAEVKKPGASVKVSCKASGYTFTSYYMHWVRQAPGQGLEWMGIINPSGGSTSYAQKFQGRVTMTRDTSTSTVYMELSSLRSEDTAVYYCAREEYSSSSAEYFQHWGQGTLVTVSS
VL: not shown
notes: Tested as a Fab expressed in E. coli; The heavy chain came from Plasmid A (CH1 with His6 and Flag tags) and the kappa light chain from Plasmid C (kappa CL); also called Wt; wildtype
B3: Fab VH1-46_IGHD6-6*01_IGHJ1*01 S102A/S103P/S104F (APF) & L6_IGKJ1*01 (Fab, V domains shown)
VH: B2 VH with S102A, S103P, S104F
VL: not shown
notes: Tested as a Fab expressed in E. coli; the constant parts (CH1 with His6/Flag tags, kappa CL) come from Plasmids A and C; also called APF triple mutant; H:APF & L:wt

Columns and labels:
[1] = biological target: T2, Recombinant Human DLL4 (R&D Systems Cat#1506-D4/CF) (human, UniProt Q9NR61 27-524); experiment: ECL multispot (MSD) assay, spotted antigen; Fab 20.00 (head prints uM)
T2 construct: Bought recombinant protein; also called delta-like protein 4

[2] = biological target: T3, rHuman CD44/Fc Chimera, CF (R&D Systems Cat#3660-CD) (human, UniProt P16070 21-220); experiment: as above
T3 construct: Bought recombinant protein; Fc part of the bought chimera not given

[3] = biological target: T4, rHuman CD44/Fc Chimera, CF (R&D Systems Cat#3660-CD) (human, UniProt P16070 21-220); experiment: ECL multispot (MSD), antigen spotted on plate, Fab at 50.00 (column head: Fab [µM])
T4 construct: Bought recombinant protein; Fc part of the bought chimera not given

[4] = biological target: T5, rHuman Notch-1/Fc Chimera, CF (R&D Systems Cat#3647-TK) (human, UniProt P46531 19-526); experiment: as above
T5 construct: Bought recombinant chimera; Fc part of the bought chimera not given

[5] = biological target: T6, Recombinant Human DLL4 (R&D Systems Cat#1506-D4/CF) (human, UniProt Q9NR61 27-524); experiment: as above
T6 construct: Bought recombinant protein; also called delta-like protein 4; rHuman DLL4

[6] = biological target: T1, rHuman Erythropoietin R/Fc Chimera, CF …; experiment: as above
[7] = biological target: T7, rHuman IGF-1 sR (insulin-like growth factor-1 soluble receptor), CF (R&D Systems Cat#391-GR) (human, UniProt P08069 31-932); experiment: as above
T7 construct: Bought recombinant soluble receptor

[8] = biological target: T8, rHuman HGF R/c-MET/Fc Chimera, CF (R&D Systems Cat#358-MT/CF) (human, UniProt P08581 25-932); experiment: as above
T8 construct: Bought recombinant protein; also called HGF R/Fc; Fc part of the bought chimera not given

[9] = biological target: T9, rHuman ErbB2/Fc Chimera, CF (R&D Systems Cat#1129-ER) (human, UniProt P04626 23-652); experiment: as above
T9 construct: Bought recombinant protein; Fc part of the bought chimera not given

[10] = biological target: T10, rHuman P-Cadherin/Fc Chimera, CF (R&D Systems Cat#861-PC) (human, UniProt P22223 108-654); experiment: as above
T10 construct: Bought recombinant protein; Fc part of the bought chimera not given

[11] = biological target: T11, rHuman EGF R/Fc Chimera, CF (R&D Systems Cat#344-ER) (human, UniProt P00533 25-645); experiment: as above
T11 construct: Bought recombinant protein; Fc part of the bought chimera not given

[12] = biological target: T4, rHuman CD44/Fc Chimera, CF (R&D Systems …); experiment: ECL multispot (MSD), antigen spotted on plate, Fab at 500.00 (column head: Fab [µM])
[13] = biological target: T5, rHuman Notch-1/Fc Chimera, CF (R&D …); experiment: as above
[14] = biological target: T6, Recombinant Human DLL4 (R&D Systems …); experiment: as above
[15] = biological target: T1, rHuman Erythropoietin R/Fc Chimera, CF …; experiment: as above
[16] = biological target: T8, rHuman HGF R/c-MET/Fc Chimera, CF (R&D …); experiment: as above
[17] = biological target: T9, rHuman ErbB2/Fc Chimera, CF (R&D …); experiment: as above
[18] = biological target: T10, rHuman P-Cadherin/Fc Chimera, CF (R&D …); experiment: as above
[19] = biological target: T11, rHuman EGF R/Fc Chimera, CF (R&D …); experiment: as above

T8 sequence (P08581 25-932, change not shown): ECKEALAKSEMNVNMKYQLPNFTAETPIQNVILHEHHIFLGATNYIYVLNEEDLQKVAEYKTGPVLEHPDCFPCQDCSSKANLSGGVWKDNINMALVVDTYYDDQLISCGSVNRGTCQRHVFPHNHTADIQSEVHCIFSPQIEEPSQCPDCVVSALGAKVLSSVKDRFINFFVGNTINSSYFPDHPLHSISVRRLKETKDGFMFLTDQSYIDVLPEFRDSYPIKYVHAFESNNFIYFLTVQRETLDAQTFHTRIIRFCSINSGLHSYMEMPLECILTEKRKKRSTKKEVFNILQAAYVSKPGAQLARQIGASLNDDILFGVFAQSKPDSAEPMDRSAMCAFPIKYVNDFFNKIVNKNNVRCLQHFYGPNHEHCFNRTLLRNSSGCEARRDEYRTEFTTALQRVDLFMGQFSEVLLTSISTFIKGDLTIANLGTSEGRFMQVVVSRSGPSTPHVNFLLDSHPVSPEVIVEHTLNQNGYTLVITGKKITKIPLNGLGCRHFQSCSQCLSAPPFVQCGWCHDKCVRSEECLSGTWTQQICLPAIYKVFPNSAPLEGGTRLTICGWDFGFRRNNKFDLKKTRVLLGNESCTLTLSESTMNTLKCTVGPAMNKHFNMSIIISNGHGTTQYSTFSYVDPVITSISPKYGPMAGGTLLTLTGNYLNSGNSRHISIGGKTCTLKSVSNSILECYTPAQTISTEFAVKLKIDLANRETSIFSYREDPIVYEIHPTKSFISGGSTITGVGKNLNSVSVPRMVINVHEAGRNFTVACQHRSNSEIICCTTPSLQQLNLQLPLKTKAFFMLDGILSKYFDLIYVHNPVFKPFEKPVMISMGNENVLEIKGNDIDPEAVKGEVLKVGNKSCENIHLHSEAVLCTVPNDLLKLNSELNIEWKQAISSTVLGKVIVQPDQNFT

Binder | ECL signal/noise ratio [1] | ECL signal/noise ratio [2] | signal/noise ratio (ECL) [3] | signal/noise ratio (ECL) [4] | signal/noise ratio (ECL) [5] | signal/noise ratio (ECL) [6] | signal/noise ratio (ECL) [7] | signal/noise ratio (ECL) [8] | signal/noise ratio (ECL) [9] | signal/noise ratio (ECL) [10] | signal/noise ratio (ECL) [11] | signal/noise ratio (ECL) [12] | signal/noise ratio (ECL) [13] | signal/noise ratio (ECL) [14] | signal/noise ratio (ECL) [15] | signal/noise ratio (ECL) [16] | signal/noise ratio (ECL) [17] | signal/noise ratio (ECL) [18] | signal/noise ratio (ECL) [19]
B1 | 157 | 1.1 | – | – | – | – | – | – | – | – | – | – | – | – | – | – | – | – | –
B2 | – | – | 0.3 | 0.6 | 33.5 | 0.9 | 0.5 | 0.6 | 0.6 | 0.7 | 0.9 | 0.4 | 0.8 | 16.2 | 0.8 | 0.3 | 0.3 | 0.2 | 0.7
B3 | – | – | 0.7 | 1.1 | 274 | 1.6 | 0.5 | 0.7 | 0.7 | 0.9 | 1 | 2.4 | 4.2 | 181 | 10.4 | 2.2 | 1.7 | 3.4 | 5.5
